Results taken from article doi:10.1101/772293.
Where two headings read alike, the source gives them in different places.

Columns and labels:
angiotensin AT1 receptor [1] = target: angiotensin AT1 receptor (UniProt P30556); assay: genetically encoded conformation-sensitive fluorescent biosensor
angiotensin AT1 receptor [2] = target: angiotensin AT1 receptor (UniProt P30556); assay: as above; remark: listed apart in the source

Chain of UniProt P30556 (P30556 whole entry): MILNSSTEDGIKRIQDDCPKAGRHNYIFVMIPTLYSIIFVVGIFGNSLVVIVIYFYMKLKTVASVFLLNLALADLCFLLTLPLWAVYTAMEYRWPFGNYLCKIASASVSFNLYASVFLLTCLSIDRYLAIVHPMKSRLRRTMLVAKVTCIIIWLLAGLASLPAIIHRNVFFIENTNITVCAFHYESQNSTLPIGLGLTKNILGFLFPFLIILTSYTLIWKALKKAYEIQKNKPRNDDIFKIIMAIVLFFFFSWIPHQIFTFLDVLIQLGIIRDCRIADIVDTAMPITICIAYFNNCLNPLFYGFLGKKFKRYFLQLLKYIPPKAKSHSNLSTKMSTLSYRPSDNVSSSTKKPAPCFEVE

t1/2 of arrestin recruitment (0.693/kobs) with 32 uM AngII (angiotensin AT1 receptor [1]): 44 s
t1/2 of arrestin recruitment (0.693/kobs) with 32 uM AngII (angiotensin AT1 receptor [2]): 45 s
t1/2 of arrestin recruitment (0.693/kobs) with 32 uM SII (angiotensin AT1 receptor [2]): 84
Substance: β-arrestin2 sensor (β-arrestin2 inserted into the seventh stave of mNeonGreen) (from UniProt P32121 1-409)
